Kd data for four molecules are collected here from publication PMC6212398 (2018).

Like-named read-outs stand apart in the source and are kept apart here.

Usually Kd stands for the constant that tells how readily two partners part at equilibrium. A high value points to weaker binding.

Holding throughout (assay): ITC
(In ITC the heat of successive injections is recorded.)

The target of assay [1] is Hsp27 GPG (isoleucine and valine of the IPV motif mutated to glycine) (human, UniProt P04792 1-205, isoleucine of the IPV (Ile179 as printed in p-0007) to glycine).
Chain of Hsp27 GPG (isoleucine and valine of the IPV motif mutated to glycine) (P04792 other isoform, or with tags, fused parts or gaps with the stated changes): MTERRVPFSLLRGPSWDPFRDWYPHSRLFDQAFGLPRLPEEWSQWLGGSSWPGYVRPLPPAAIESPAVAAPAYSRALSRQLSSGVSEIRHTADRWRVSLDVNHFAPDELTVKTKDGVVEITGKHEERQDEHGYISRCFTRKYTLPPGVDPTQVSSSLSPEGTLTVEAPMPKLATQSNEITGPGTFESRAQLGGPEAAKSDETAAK
Assay [2] concerns the target T1, Hsp27 alpha-crystallin domain (ACD, residues Q80–S176) (human, UniProt P04792 80-176).
Assay [3] concerns the target T1, Hsp27 alpha-crystallin domain (ACD, …). The source holds these as a separate data set.

T1 sequence (P04792 80-176): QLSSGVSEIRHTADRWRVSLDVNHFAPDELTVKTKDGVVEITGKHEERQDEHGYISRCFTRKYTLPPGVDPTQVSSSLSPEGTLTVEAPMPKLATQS

B1: Hsp27 IPV H peptide (EITIPVTHE) (peptide)
peptide: EITIPVTHE
As for B1, the Kd worked out at 6.8 µM in assay [1] and 7.3 µM in assay [2].

B2: T184A (peptide)
chain: EITIPVAHE
modifications: synthetic 9-mer; alanine-scan variant of the His-containing IPV peptide … (gives EITIPVAHE). The T184 label fits UniProt numbering, not the shifted numbering printed in the text. Termini not stated
The molecule B2 returned a Kd in assay [3] of 9.43 µM.

B3: Hsp27 IPV H peptide with Ile179 mutated to alanine (peptide)
chain: EITAPVTHE
modifications: EITAPVTHE. The paper numbers the peptide from E176, so printed Ile179 (I of IPV) is UniProt I181. Peptide termini chemistry is not stated.
Regarding B3, in assay [3], the Kd was 12.6 µM.

B4: Hsp27 IPV H peptide with the second X residue (Pro) of IXIXV mutated to alanine (EITIAVTHE) (peptide)
peptide: EITIAVTHE
Molecule B4 displayed a Kd in assay [3] of 4.23 µM. Against the preceding molecule, the Kd is about 3-fold lower.
